According to article PMC5995969, “Structural basis for the regulation of human 5,10-methylenetetrahydrofolate reductase by phosphorylation and S-adenosylmethionine inhibition” (Nature Communications, 2018):

Experiments:
[1] = test system: NC(=O)C1=CN([C@@H]2O[C@H](COP(=O)(O)OP(=O)(O)OC[C@H]3O[C@@H](n4cnc5c(N)ncnc54)[C@H](OP(=O)(O)O)[C@@H]3O)[C@@H](O)[C@H]2O)C=CC1; test: purified protein; details: FAD catalytic domain; binding site shared with CH2-THF, next to FAD; 46.0 °C
[2] = test system: Nc1nc2c(c(=O)[nH]1)N1CN(c3ccc(C(=O)N[C@@H](CCC(=O)O)C(=O)O)cc3)CC1CN2; test: purified protein; details: FAD catalytic domain; binding site shared with NAD(P)H, next to FAD; 46.0 °C

## 5,10-methylenetetrahydrofolate reductase (MTHFR) (Homo sapiens)
[1]
  Km: 23.5 µM
[2]
  Km: 22.4 µM
